Data from article PMC3642155.

Molecular target: T7 RNA polymerase (UniProt P00573 1-883)
Test: filter binding

Sequence of T7 RNA polymerase (P00573 whole entry): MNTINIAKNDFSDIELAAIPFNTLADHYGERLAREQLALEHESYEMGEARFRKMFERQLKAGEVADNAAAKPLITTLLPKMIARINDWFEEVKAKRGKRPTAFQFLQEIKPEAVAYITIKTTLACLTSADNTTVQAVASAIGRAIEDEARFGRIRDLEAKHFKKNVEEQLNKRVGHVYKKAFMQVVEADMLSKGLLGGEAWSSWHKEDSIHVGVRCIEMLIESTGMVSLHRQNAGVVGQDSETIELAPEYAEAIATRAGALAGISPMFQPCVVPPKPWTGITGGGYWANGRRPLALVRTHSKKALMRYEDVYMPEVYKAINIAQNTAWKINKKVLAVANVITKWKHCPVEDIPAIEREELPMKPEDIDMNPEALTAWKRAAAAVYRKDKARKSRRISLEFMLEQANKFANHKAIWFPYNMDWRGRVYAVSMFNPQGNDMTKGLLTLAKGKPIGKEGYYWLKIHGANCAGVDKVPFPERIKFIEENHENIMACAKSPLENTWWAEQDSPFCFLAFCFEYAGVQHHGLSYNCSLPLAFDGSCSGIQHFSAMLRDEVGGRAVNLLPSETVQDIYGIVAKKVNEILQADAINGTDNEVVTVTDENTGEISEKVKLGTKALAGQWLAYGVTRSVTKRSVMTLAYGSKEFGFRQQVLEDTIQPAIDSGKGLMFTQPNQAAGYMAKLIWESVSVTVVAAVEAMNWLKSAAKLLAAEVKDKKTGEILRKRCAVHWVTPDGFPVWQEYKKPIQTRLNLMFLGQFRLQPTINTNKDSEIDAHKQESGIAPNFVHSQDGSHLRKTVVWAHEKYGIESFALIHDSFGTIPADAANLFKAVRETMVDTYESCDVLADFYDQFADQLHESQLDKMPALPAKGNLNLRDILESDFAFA

Binder	Kd [nM]
GUGUAGUGUAAGUCAAUUCUACUUUCGUUGCAGCCCAC (structured_RNA) [T06-38]	10.5 ± 2.1
T06 (structured_RNA) RNA: GAGGAUGGCAGCGGAGAGGAAUGGUGUAGUGUAAGUCAAUUCUACUUUCGUUGCAGCCCACACCACUCUCC	8 ± 2.4
GCGUAAGUCAAUUCCACUAUCAUUGCUGC (structured_RNA) [T230-29]	2.9 ± 0.9
